Data on two substances can be found in US20190153406.

Data set [1] deals with IRS1 (insulin receptor substrate-1), species not stated.
Data set [2] deals with insulin receptor IR.

Turning to human MG53-D-RING truncated mutant, the “MG53-mediated substrate degradation, Western Blot, HEK293T co-expression (FIG. 17)” value in data set [1] is reported as “human or mouse MG53-D-RING truncated mutant can hardly mediate IRS1 degradation”.
Turning to mouse MG53-D-RING truncated mutant, in data set [2], the “degradation of IRβ, Western Blot, HEK293T co-expression (FIG. 16B)” value is “mouse MG53-D-RING truncated mutant and mouse MG53 S255A mutant can hardly mediate IRβ degradation”; the “degradation of precursor protein of IRβ, HEK293T co-expression” value is “mouse MG53-D-RING truncated mutant and mouse MG53 S255A mutant almost completely inhibited MG53-mediated degradation”. Also, the “MG53-mediated substrate degradation, Western Blot, HEK293T co-expression (FIG. 16)” value in data set [1] was “human or mouse MG53-D-RING truncated mutant can hardly mediate IRS1 degradation”.
